Target: anti-EGFR antibody (Cetuximab)
Experiment: cell-based or functional assay

CD16a, exogenously expressed on iNK cells
cytotoxic activity (ADCC activity) against A549 cells expressing EGFR, LDH assay, 4 hr co-culture in the presence of Cetuximab (fold against control iNK cells): 2

From US20250041418A1
